Results from patent US10208288B2, “Differentiation of human embryonic stem cells into pancreatic endocrine cells” (Janssen Biotech, Inc., priority 2012, dated 2019).

System: cells of the human embryonic stem cell line H1 differentiated to stage 5
Experiment: Immunostaining for insulin protein expression at the end of Stage 5
Type: cell-based
Settings: 50 or 100 ng/ml for three days at stage 5, immunostaining vs control; FIG. 2, FIG. 3
Protocol: Cells of the human embryonic stem cell line H1 (hESC H1, passage 40) were seeded as single cells at 1×10^5 cells/cm^2 on MATRIGEL™ (1:30 dilution; BD Biosciences, NJ)-coated dishes in mTeSR®1 media supplemented with 10 μM of Y27632. Forty-eight hours post seeding, cultures were washed in incomplete PBS (phosphate buffered saline without Mg or Ca). Cultures were differentiated into pancreatic endoderm/endocrine lineages as follows: • a) Stage 1 (Definitive Endoderm (DE)—3 days): Cells were cultured for one day in stage 1 media (see Example 1, above). Cells were then cultured for an additional day in MCDB-131 medium supplemented with 0.1% fatty acid-free BSA, 0.0012 g/ml sodium bicarbonate, 1× GlutaMax™, 4.5 mM D-Glucose, 100 ng/ml GDF8, and 0.1 μM MCX compound. […]

B1: Ephrin-A4: Ephrin ligand protein, R & D Systems catalogue number 369-EA (protein, UniProt P52798 26-170, looked up)
Ephrin-A4: LRHVVYWNSSNPRLLRGDAVVELGLNDYLDIVCPHYEGPGPPEGPETFALYMVDWPGYESCQAEGPRAYKRWVCSLPFGHVQFSEKIQRFTPFSLGFEFLPGETYYYISVPTPESSGQCLRLQVSVCCKERKSESAHPVGSPGES
- protein expression of insulin: significantly enhanced
